According to patent publication US20170015742A1 (published 2017):

What was measured:
[1] = target: recombinant human VEGF165 (human, UniProt P15692 207-395); assay: cell-based or functional assay
[2] = target: recombinant human PDGF-BB (human, UniProt P01127 82-190); assay: cell-based or functional assay
recombinant human PDGF-BB, sequence (P01127 82-190 limits assumed): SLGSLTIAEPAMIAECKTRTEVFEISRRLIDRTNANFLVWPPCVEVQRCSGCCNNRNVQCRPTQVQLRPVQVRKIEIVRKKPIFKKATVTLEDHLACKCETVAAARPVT

recombinant human VEGF165, sequence (P15692 other isoform, or with tags, fused parts or gaps limits assumed): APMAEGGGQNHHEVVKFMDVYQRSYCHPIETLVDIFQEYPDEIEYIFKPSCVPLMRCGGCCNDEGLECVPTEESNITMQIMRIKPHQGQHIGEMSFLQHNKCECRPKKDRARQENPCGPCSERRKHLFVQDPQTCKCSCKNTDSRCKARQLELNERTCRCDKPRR

Row | Potency IC50 (nM) HMVEC-d hVEGF165 [1] [nM] | Potency IC50 (nM) NIH-3T3 hPDGF-BB [2] [nM] | Binder
1 | 0.132 | 0.213 | 9E8.4_GS_9E10.6 (bispecific antibody, human IgG1, kappa, L234A L235A) heavy: EVTLRESGPALVKPTQTLTLTCTFSGFSLSTYGMGVGWIRQPPGKALEWLANIWWDDDKYYNPSLKNRLTISKDTSKNQVVLTMTNMDPVDTATYYCARIESIGTTYSFDYWGQGTMVTVSSGGGGSGGGGSEVQLVQSGAEVKKPGSSVKVSCKASGYTFTNYGMYWVRQAPGQGLEWMGWIDTETGRPTYADDFKGRFTFTADKSTSTAYMELSSLRSEDTAVYYCARWSGDTTGIRGPWFAYWGQGTLVTVSSASTKGPSVFPLAPSSKSTSGGTAALGCLVKDYFPEPVTVSWNSGALTSGVHTFPAVLQSSGLYSLSSVVTVPSSSLGTQTYICNVNHKPSNTKVDKKVEPKSCDKTHTCPPCPAPEAAGGPSVFLFPPKPKDTLMISRTPEVTCVVVDVSHEDPEVKFNWYVDGVEVHNAKTKPREEQYNSTYRVVSVLTVLHQDWLNGKEYKCKVSNKALPAPIEKTISKAKGQPREPQVYTLPPSREEMTKNQVSLTCLVKGFYPSDIAVEWESNGQPENNYKTTPPVLDSDGSFFLYSKLTVDKSRWQQGNVFSCSVMHEALHNAYTQKSLSLSPGK light: EFVLTQSPGTLSLSPGERATLSCERSSGDIGDSYVSWYQQKPGQAPRLVIYADDQRPSGIPDRFSGSGSGTDFTLTISRLEPEDFAVYYCQSYDINIDIVFGGGTKVEIKGGSGGGGSGGDIRMTQSPSSLSASVGDRVTITCLASEDIYSDLAWYQQKPGKSPKLLIYNANGLQNGVPSRFSGSGSGTDYTLTISSLQPEDVATYFCQQYNYFPGTFGQGTKLEIKRTVAAPSVFIFPPSDEQLKSGTASVVCLLNNFYPREAKVQWKVDNALQSGNSQESVTEQDSKDSTYSLSSTLTLSKADYEKHKVYACEVTHQGLSSPVTKSFNRGEC
2 | 0.069 | 4.83 | 4G8.5_GS_9E8.4 (bispecific antibody, human IgG1, kappa, L234A L235A) heavy: EIQLVQSGSELKKPGASVKVSCKASGYTFTNYGMYWVRQAPGQGLEYMGWINTETGKPTYADDFKGRFVFSLDTSVSTAYLQISSLKAEDTAVYFCARTNYYYRSYIFYFDYWGQGTMVTVSSGGGGSGGGGSEVTLRESGPALVKPTQTLTLTCTFSGFSLSTYGMGVGWIRQPPGKALEWLANIWWDDDKYYNPSLKNRLTISKDTSKNQVVLTMTNMDPVDTATYYCARIESIGTTYSFDYWGQGTMVTVSSASTKGPSVFPLAPSSKSTSGGTAALGCLVKDYFPEPVTVSWNSGALTSGVHTFPAVLQSSGLYSLSSVVTVPSSSLGTQTYICNVNHKPSNTKVDKKVEPKSCDKTHTCPPCPAPEAAGGPSVFLFPPKPKDTLMISRTPEVTCVVVDVSHEDPEVKFNWYVDGVEVHNAKTKPREEQYNSTYRVVSVLTVLHQDWLNGKEYKCKVSNKALPAPIEKTISKAKGQPREPQVYTLPPSREEMTKNQVSLTCLVKGFYPSDIAVEWESNGQPENNYKTTPPVLDSDGSFFLYSKLTVDKSRWQQGNVFSCSVMHEALHNAYTQKSLSLSPGK light: ATQLTQSPSLSASVGDRVTITCRASESVSTHMHWYQQKPGKQPKLLIYGASNLESGVPSRFSGSGSGTDFTLTISSLQPEDFATYFCQQSWNDPFTFGQGTKLEIKGGSGGGGSGGEFVLTQSPGTLSLSPGERATLSCERSSGDIGDSYVSWYQQKPGQAPRLVIYADDQRPSGIPDRFSGSGSGTDFTLTISRLEPEDFAVYYCQSYDINIDIVFGGGTKVEIKRTVAAPSVFIFPPSDEQLKSGTASVVCLLNNFYPREAKVQWKVDNALQSGNSQESVTEQDSKDSTYSLSSTLTLSKADYEKHKVYACEVTHQGLSSPVTKSFNRGEC
3 | 0.391 | 0.109 | 9E8.4_GS_1B10.1 (bispecific antibody, human IgG1, kappa, L234A L235A) heavy: EVTLRESGPALVKPTQTLTLTCTFSGFSLSTYGMGVGWIRQPPGKALEWLANIWWDDDKYYNPSLKNRLTISKDTSKNQVVLTMTNMDPVDTATYYCARIESIGTTYSFDYWGQGTMVTVSSGGGGSGGGGSEVQLVESGGGLVQPGGSLRLSCAASGFSFSKYDMAWFRQAPGKGLEWVASITTSGVGTYYRDSVKGRFTVSRDNAKSTLYLQMNSLRAEDTAVYYCARGYGAMDAWGQGTTVTVSSASTKGPSVFPLAPSSKSTSGGTAALGCLVKDYFPEPVTVSWNSGALTSGVHTFPAVLQSSGLYSLSSVVTVPSSSLGTQTYICNVNHKPSNTKVDKKVEPKSCDKTHTCPPCPAPEAAGGPSVFLFPPKPKDTLMISRTPEVTCVVVDVSHEDPEVKFNWYVDGVEVHNAKTKPREEQYNSTYRVVSVLTVLHQDWLNGKEYKCKVSNKALPAPIEKTISKAKGQPREPQVYTLPPSREEMTKNQVSLTCLVKGFYPSDIAVEWESNGQPENNYKTTPPVLDSDGSFFLYSKLTVDKSRWQQGNVFSCSVMHEALHNAYTQKSLSLSPGK light: EFVLTQSPGTLSLSPGERATLSCERSSGDIGDSYVSWYQQKPGQAPRLVIYADDQRPSGIPDRFSGSGSGTDFTLTISRLEPEDFAVYYCQSYDINIDIVFGGGTKVEIKGGSGGGGSGGDIQMTQSPSSLSASVGDRVTITCKASQDIDDYLSWYQQKPGKSPKLVIYAATRLADGVPSRFSGSGSGTDYTLTISSLQPEDFATYYCLQSSSTPWTFGGGTKVEIKRTVAAPSVFIFPPSDEQLKSGTASVVCLLNNFYPREAKVQWKVDNALQSGNSQESVTEQDSKDSTYSLSSTLTLSKADYEKHKVYACEVTHQGLSSPVTKSFNRGEC
4 | 0.897 | 0.131 | 9E8.4_GS_1E3.4 (bispecific antibody, human IgG1, kappa, L234A L235A) heavy: EVTLRESGPALVKPTQTLTLTCTFSGFSLSTYGMGVGWIRQPPGKALEWLANIWWDDDKYYNPSLKNRLTISKDTSKNQVVLTMTNMDPVDTATYYCARIESIGTTYSFDYWGQGTMVTVSSGGGGSGGGGSEIQLVQSGSELKKPGASVKVSCKASGYPFTNSGMYWVKQAPGQGLEYMGWINTEAGKPTYADDFKGRFVFSLDTSVSTAYLQISSLKAEDTAVYFCARWGYISDNSYGWFDYWGQGTLVTVSSASTKGPSVFPLAPSSKSTSGGTAALGCLVKDYFPEPVTVSWNSGALTSGVHTFPAVLQSSGLYSLSSVVTVPSSSLGTQTYICNVNHKPSNTKVDKKVEPKSCDKTHTCPPCPAPEAAGGPSVFLFPPKPKDTLMISRTPEVTCVVVDVSHEDPEVKFNWYVDGVEVHNAKTKPREEQYNSTYRVVSVLTVLHQDWLNGKEYKCKVSNKALPAPIEKTISKAKGQPREPQVYTLPPSREEMTKNQVSLTCLVKGFYPSDIAVEWESNGQPENNYKTTPPVLDSDGSFFLYSKLTVDKSRWQQGNVFSCSVMHEALHNAYTQKSLSLSPGK light: EFVLTQSPGTLSLSPGERATLSCERSSGDIGDSYVSWYQQKPGQAPRLVIYADDQRPSGIPDRFSGSGSGTDFTLTISRLEPEDFAVYYCQSYDINIDIVFGGGTKVEIKGGSGGGGSGGATQLTQSPSSLSASVGDRVTISCRASEGVYSYMHWYQQKPGKQPKLLIYKASNLASGVPSRFSGSGSGTDFTLTISSLQPEDFATYFCHQNWNDPLTFGQGTKLEIKRTVAAPSVFIFPPSDEQLKSGTASVVCLLNNFYPREAKVQWKVDNALQSGNSQESVTEQDSKDSTYSLSSTLTLSKADYEKHKVYACEVTHQGLSSPVTKSFNRGEC
